Test results from IntAct's records for PubMed 16107882.

B1: Bud site selection protein 14 (Saccharomyces cerevisiae), P27637 (parent)
chain: MSNKEEHVDETSASGVKEVSSIAARHDNGYAPSLITSTSGMDSFQSHALLNDPTLIEDYSDIINNRPTSGSKLTLGNEDSESMGGSVVVTPTSNKSSPFNSKLNILSNAAEKGHDVLRNRDDDKELEEENVEKHMHSNSKRDQRHYKENSSELPDSYDYSDSEFEDNLERRLQEIETDSVDSADKDEVHFSVNNTMNPDVDDFSDGLKYAISEDEDEEENYSDDDDFDRKFQDSGFQGEKDDLEEENDDYQPLSPPRELDPDKLYALYAFNGHDSSHCQLGQDEPCILLNDQDAYWWLVKRITDGKIGFAPAEILETFPERLARLNCWKNENMSSQSVASSDSKDDSISSGNKNQSDAESIIPTPALNGYGKGNKSVSFNDVVGYADRFIDDAIEDTSLDSNDDGGEGNGQSYDDDVDNDKETKVTHRDEYTEAKLNFGKFQDDDTSDVVSDVSFSTSLNTPLNVKKVRRQDNKNESEPKTSSSKDREDDYNANRYVGQEKSEPVDSDYDTDLKKVFEAPRMPFANGMAKSDSQNSLSTIGEFSPSSSEWTNESPSTPIVEESSSIPSSRAIKDISQYIHAKSKIEETTNVENTEGQIQASLGSSGGMANQTDAEQPKEELEKHHSTPEEEKQSTLSLHSSSEEDFYMDEQRAVSSASINSSLSGSRALSNTNMSDPASKPNSLVQHLYAPVFDRMDVLMKQLDEIIRK

Variants of: B1
Conditions: with pp12_yeast GLC7, P32598
Chain of pp12_yeast GLC7, P32598 (P32598 whole entry): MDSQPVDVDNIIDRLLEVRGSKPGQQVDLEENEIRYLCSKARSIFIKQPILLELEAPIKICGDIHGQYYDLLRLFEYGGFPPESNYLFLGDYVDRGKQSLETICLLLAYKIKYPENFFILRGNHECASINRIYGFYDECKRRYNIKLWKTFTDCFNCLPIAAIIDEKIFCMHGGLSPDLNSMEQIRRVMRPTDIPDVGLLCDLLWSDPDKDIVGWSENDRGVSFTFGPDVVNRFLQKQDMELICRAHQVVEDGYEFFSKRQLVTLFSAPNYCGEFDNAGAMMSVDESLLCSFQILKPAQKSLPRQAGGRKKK

| effect of a mutation on the interaction | Variant |
| --- | --- |
| decreasing interaction | V377A |
| decreasing interaction | F379A |

Variants of: B1
Conditions: with bem2_yeast BEM2, P39960
Chain of bem2_yeast BEM2, P39960 (P39960 whole entry): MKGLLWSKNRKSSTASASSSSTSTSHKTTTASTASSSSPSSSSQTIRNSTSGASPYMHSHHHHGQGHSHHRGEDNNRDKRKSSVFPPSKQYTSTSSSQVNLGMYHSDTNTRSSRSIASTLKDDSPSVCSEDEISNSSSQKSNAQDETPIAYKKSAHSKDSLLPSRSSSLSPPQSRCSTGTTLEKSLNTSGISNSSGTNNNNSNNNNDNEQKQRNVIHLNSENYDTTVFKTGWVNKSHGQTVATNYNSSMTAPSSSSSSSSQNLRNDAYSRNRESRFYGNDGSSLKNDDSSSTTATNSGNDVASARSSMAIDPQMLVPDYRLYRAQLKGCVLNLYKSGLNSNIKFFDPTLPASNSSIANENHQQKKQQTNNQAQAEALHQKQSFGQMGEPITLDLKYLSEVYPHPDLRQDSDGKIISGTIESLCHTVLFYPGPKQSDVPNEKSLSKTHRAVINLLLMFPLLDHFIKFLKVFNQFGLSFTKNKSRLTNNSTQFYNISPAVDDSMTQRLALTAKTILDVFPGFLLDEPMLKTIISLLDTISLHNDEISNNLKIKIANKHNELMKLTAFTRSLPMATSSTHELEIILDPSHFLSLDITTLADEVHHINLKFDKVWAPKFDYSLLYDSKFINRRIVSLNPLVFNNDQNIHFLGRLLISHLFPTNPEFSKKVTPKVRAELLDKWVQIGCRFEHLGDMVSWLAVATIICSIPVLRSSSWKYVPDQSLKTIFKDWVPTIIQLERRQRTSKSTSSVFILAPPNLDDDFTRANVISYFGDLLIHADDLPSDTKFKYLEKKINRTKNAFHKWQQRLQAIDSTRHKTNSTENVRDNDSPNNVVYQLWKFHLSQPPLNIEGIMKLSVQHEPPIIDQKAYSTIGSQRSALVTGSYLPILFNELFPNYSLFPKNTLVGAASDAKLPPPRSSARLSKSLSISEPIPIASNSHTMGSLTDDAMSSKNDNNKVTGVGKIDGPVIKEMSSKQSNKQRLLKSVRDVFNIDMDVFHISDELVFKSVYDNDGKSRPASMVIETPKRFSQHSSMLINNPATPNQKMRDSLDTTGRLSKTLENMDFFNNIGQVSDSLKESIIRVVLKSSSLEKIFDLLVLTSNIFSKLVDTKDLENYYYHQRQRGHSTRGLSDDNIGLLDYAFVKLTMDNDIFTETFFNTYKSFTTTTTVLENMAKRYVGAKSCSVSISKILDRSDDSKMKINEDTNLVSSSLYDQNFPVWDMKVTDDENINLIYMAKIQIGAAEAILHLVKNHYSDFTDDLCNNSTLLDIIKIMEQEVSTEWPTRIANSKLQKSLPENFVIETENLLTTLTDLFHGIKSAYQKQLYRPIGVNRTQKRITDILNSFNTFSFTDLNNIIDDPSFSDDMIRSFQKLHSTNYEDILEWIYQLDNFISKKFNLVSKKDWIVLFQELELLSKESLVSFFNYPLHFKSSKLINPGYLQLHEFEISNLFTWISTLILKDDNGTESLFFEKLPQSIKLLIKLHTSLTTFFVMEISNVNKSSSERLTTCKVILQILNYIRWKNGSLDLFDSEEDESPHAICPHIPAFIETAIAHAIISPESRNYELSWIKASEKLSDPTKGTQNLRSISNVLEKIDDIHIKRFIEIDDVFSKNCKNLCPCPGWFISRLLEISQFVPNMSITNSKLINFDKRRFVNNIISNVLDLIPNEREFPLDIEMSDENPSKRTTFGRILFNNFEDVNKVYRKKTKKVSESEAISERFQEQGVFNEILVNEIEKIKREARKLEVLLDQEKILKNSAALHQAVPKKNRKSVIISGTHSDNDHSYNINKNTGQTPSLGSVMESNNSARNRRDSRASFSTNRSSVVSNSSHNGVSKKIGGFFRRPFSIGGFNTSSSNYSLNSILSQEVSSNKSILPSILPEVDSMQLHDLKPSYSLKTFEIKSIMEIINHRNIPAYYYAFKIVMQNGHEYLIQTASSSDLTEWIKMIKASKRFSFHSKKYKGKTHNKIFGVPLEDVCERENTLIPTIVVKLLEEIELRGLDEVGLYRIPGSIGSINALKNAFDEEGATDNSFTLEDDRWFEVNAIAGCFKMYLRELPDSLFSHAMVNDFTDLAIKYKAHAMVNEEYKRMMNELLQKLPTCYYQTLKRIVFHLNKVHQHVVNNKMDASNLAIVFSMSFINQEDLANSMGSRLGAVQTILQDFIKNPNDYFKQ

| effect of a mutation on the interaction | Variant |
| --- | --- |
| decreasing interaction | F379A |
